Measured values published in US6649744B1, “Rnase P polypeptides, polynucleotides, and methods using their mechanisms of action” (SmithKline Beecham Corporation, priority 1999, dated 2003).
Like-named read-outs stand apart in the source and are kept apart here.

Tests used:
[1] = system: S. aureus pre-tRNA^phe; assay: RNase P kinetics (Michaelis Menten) with cloned pre-tRNAphe as substrate; format: biochemical; settings: 50 mM Tris pH8.0, 1 M NH4Cl, 200 mM MgCl2, 5% PEG
Protocol: A cloned pre-tRNA^phe was used as a substrate for kinetic characterizations for both the holoenzyme and RNA only reactions.
RNase P RNA-only kinetics in the following buffer: 50 mM Tris, pH8.0, 1 M NH4Cl, 200 mM MgCl2, and 5% PEG. […] In both experiments, a cloned pre-tRNA^phe was used as substrate.

[2] = system: E. coli ptRNA^met; assay: Cleavage of ptRNAmet by RNase P RNA or holoenzyme (gel, autoradiography); format: biochemical; settings: 100 mM TrisCl pH8, 100 mM MgCl2, 5% PEG
Protocol: E. coli ptRNA^met, a substrate for RNase P, was transcribed in vitro by T7 RNA polymerase (Epicenter) in the presence of [α-32P] UTP to internally label the RNA. The DNA template pGem3Z-ptRNA was linearized with BstNI restriction endonuclease to allow run-off transcription. The transcription was performed in a 20 μl reaction at 37° C. for 60min. To remove unincorporated nucleotides the 93 nt RNA (sequence shown below) was cleaned under non-denaturing conditions using a CLONTECH Chroma-Spin 10 column. To calculate the specific activity of the RNA probe, 1 μl samples were removed before and after cleaning, mixed with 5 ml scintillation cocktail and counted in a scintillation counter. ptRNAmet in pGem-3Z, sequence of the transcript (93mer) 5′→3′ [SEQ ID NO: 12]: GGGCGAAUUCGCCUCGGCUACGUAGCUCAGUUGGUUAGAGCACAUCACUCAUAAUGAUGGGGUCACAGGUUCGAAUCCCGUCGUAGCCACCAG
(§1) E. coli M1 RNA is able to cleave ptRNA^met or the minimal substrate p6AT-1 in 100 mM NH4Cl, 100 mM TrisCl pH 7.5, 100 mM MgCl2. The conditions for cleavage of either substrate by S. aureus SP RNA were unknown and clearly deviated from those optimized for E. coli. A large number of different buffer conditions were investigated in order to determine optimal buffer conditions for either substrate cleavage by the S. aureus ribozyme.
(§2) Cleavage reactions (20 μl) were all performed at 37° C. for 30 min with 100 nM SP RNA and an additional 200 nM SP protein in the holoenzyme reactions. Substrates (ptRNA^met or p6AT-1) were added in trace amounts (single-turnover reactions). Cleavage was monitored by size resolution of the intact precursor and the cleaved leader sequence by denaturing gel elctrophoresis and autoradiography or visualization on the phosphorimager (Molecular Dynamics Storm 860).

[3] = system: p6AT-1; assay: Cleavage of minimal substrate p6AT-1 by RNase P RNA or holoenzyme (gel, autoradiography); format: biochemical
Protocol: The chemically synthesized 42nt RNA molecule p6AT-l was 5′ end-labeled with high specific activity [γ-^32p] ATP ([…]) using bacteriophage T4 polynucleotide kinase. The labeling was performed in a 10 μl reaction at 37° C. for 30 min. The enzyme was heat-inactivated at 95° C. for 2 min. To remove salts, unincorporated nucleotides and the enzyme, p6AT-1 was gel purified from a 20% polyacrylamide TBE gel with 7M urea. The RNA was extracted from the gel slice and precipitated with 300 mM NaOAc and 2.5 volumes 100% ethanol. After a spin at 14,000 g and 4° C. the RNA pellet was washed twice with chilled 70% ethanol. The pellet was air dried and subsequently resuspended in 50 μl water. 0.5 μl were spotted onto a filter paper disk and counted in a scintillation counter (Cherenkov analysis).
as §1, §2

[4] = biological target: S. aureus RNase P RNA; assay: Filter binding / gel-shift assay of RNase P protein to RNase P RNA
Protocol: The RNase P RNA/protein interactions were investigated by gel mobility shift and filter binding experiments.
Binding isotherm of RNase P RNA obtained by filter binding assay was asswssed. The 3′-end labeled RNA was mixed with the protein in the binding buffer containing 20 mM K-Hepes, pH8.0, 0.01% NP-40, 400 mM NH4OAc, 10 mM MgCl2, and 5% glycererol. The Kd value was generated by fitting the data with Grafit 4 one-site ligand binding equation: % binding=plateau/(1+Kd/[S. aureus protein]).

Molecule	pre-tRNAphe processing, RNA-only [1]	ptRNAmet substrate processed ([2]; 150 mM KCl)	ptRNAmet substrate processed ([2]; 800 mM KCl)	ptRNA cleaved ([2]; KCl 1M or above)	p6AT-1 cleavage ([3]; 10 mM MgCl2, 2M KCl, 100 mM TrisCl pH8, 5% PEG)	p6AT-1 cleavage ([3]; 1M KCl or NH4Cl, 100 mM TrisCl pH7.5, 100 mM MgCl2)	p6AT-1 cleavage, maximal level ([3]; 1.5M KCl, 100 mM TrisCl pH8, 100 mM MgCl2, 5% PEG, 37° C. 30 min, 100 nM SP RNA)	p6AT-1 cleavage ([3]; KCl below 400 mM, 100 mM TrisCl pH8, 100 mM MgCl2, 5% PEG)	Kd ([4]; 20 mM K-Hepes pH8.0, 0.01% NP-40, 400 mM NH4OAc, 10 mM MgCl2, 5% glycererol, 3′-end labeled RNA, read-out: Kd, filter binding isotherm)	Kd ([4]; filter binding and gel-shift assays, read-out: binding constant of the complex)
SP RNA: S. aureus RNase P catalytic RNA component, transcribed in vitro from plasmid pSPR with T7 RNA polymerase; gene SEQ ID NO:3 (nucleic acid, listed as Staphylococcus aureus, RNA transcript of gene) DNA: GTTCTGATATTTTGGGTAATCGCTATATTATATAGAGGAAAGTCCATGCTCACACAGTCTGAGATGATTGTAGTGTTCGTGCTTGATGAAACAATAAATCAAGGCATTAATTTGACGGCAATGAAATATCCTAAGTCTTTCGATATGGATAGAGTAATTTGAAAGTGCCACAGTGACGTAGCTTTTATAGAAATATAAAAGGTGGAACGCGGTAAACCCCTCGAGTGAGCAATCCAAATTTGGTAGGAGCACTTGTTTAACGGAATTCAACGTATAAACGAGACACACTTCGCGAAATGAAGTGGTGTACGACAGATGGTTATCACCTGAGTACCAGTGTGACTAGTGCACGTGATGAGTACGATGGAACAGAACATGGCTTATAGAAATATCACTACTA	efficiently processed	more than 50%	82%	85%	No cleavage	hardly any cleavage product detectable	27%	No cleavage		
S. aureus RNase P protein: 117 amino acid translation product of the S. aureus spp gene, SEQ ID NO:2, expressed as MBP fusion and cleaved (protein, listed as Staphylococcus aureus) MLLEKVYRIKKNADFGRIYKKGHSVANRQFVVYTCNNKEIDHFRLGISVSKKLGNAVLRNKIKRAIRENFKVHKSHILAKDIIVIARQPAKDMTTLQIQNSLEHVLKIAKVFNKKIK									8 ± 1 nM	20 nM
